# According to the nanobody polyreactivity screen of Harvey et al. (2022):
# Experiment: yeast display, Sf9 membrane polyspecificity reagent, FACS + sequencing; frameworks hold sequencing errors
# In short: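 A nanobody's polyreactivity label depends on the gate it was sorted from. Yeast display cells were stained with 10% biotinylated, detergent-solubilized Sf9 membrane reagent for 1 hour at 4 °C, enriched on streptavidin microbeads and sorted by FACS. The low and high (top ~1%) gates were set on anti-HA fluorescence for expression and streptavidin fluorescence for reagent binding.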
row,Sequence,polyreactivity (PSR sort gate)
1,QVQLVESGGGLVQAGGSLRLSCAASGSIFLVYGMGWYRQAPGKERELVAAITSSAGSTYYADSVKGRFTISRDNAKNTVYLQMNSLKPEDTAVYYCAARWAWSTYSYYYWGQGTQVTVSS,high polyreactivity
2,QVQLVESGGGLVQAGGSLRLSCAASGSIFLWYDMGWYRQAPGKERECVASITRSGGSTYYADSVKGRFTISRDNAKNTVYLQMNSLKPEDTAVYYCAASGATGRYSVYYHGYTYDYWGQGTQVTVSS,low polyreactivity
3,QVQLVESGGGLVQAGGSLRLSCAASGSIFLYNALGWYRQAPGKERELVAAIYKSGGSTYYADSVKGRFTISRDNEKNSVYLQMNSLKPEDTAVYYCAAGYGSRIRYGSEYDYWGQGTQVTVSS,low polyreactivity
4,QVQLVESGGGLVQAGGSLRLSCAASGSIFLYNAMGWYIQAPGKERELVAAISKSGGSTYYADSVKGRFTISRDNAKNTVYLQMNSLKPEDTAVYYCAADFLPQSYNWYDYWGQGTEVTVSS,low polyreactivity
5,QVQLVESGGGLVQAGGSLRLSCAASGSIFLYNAMGWYRPAPGKERELVAAISKSGGSTYYADSVKGRFTISRDNAKNTVYLQMNSLKPEDTAVYYCAAGYGRRIRYGSEYDYWGQGTQVTVSS,low polyreactivity
6,QVQLVESGGGLVQAGGSLRLSCAASGSIFLYYAMGWYRQAPGKERELVAGINRVGSTNYADSVKGRFTISRDNAKNTVYLQMNSLKPEDTAVYYCNKRGTRSRRRGYWGQGTQVTVSS,low polyreactivity
7,QVQLVESGGGLVQAGGSLRLSCAASGSIFLYYAMGWYRQAPGKERELVATIRGSGSSTYYADSVKGRFTISRDNAKNTVYLQMNSLKPEDTAVYYCAAKGYRWFRHGGYYFKFDYWGQGTQVTVSS,high polyreactivity
8,QVQLVESGGGLVQAGGSLRLSCAASGSIFNAYVMGWYRQAPGKERELVAAISRSGGRTYYADSVKGRFTISRDNATNTVYLQMNCLKPEDTAVYYCAAGYRYNYWGQGSQVTVSS,high polyreactivity
9,QVQLVESGGGLVQAGGSLRLSCAASGSIFNGYAMGWYRQAPGKERELVAAISWNGGRTYYADSVKGRFTISRDNAKNTVYLQMNSLKPEDTAVYYCNKVSGYDVDYWGQGTQVTVSS,high polyreactivity
10,QVQLVESGGGLVQAGGSLRLSCAASGSIFNKNAMGWYRQAPGKERELVAAITSSGSSTYYADSVKGRFTISRDNAKNTVYLQMNSLKPEDTAVYYCNAQYGIRPRAGRTRQKYDYWGQGTQVTVSS,high polyreactivity
11,QVQLVESGGGLVQAGGSLRLSCAASGSIFNKNTMGWYRQAPGKERELVAAISGRTGITTYADSVKGRFTISRDNAKNTVYLQMNSLKPEDTAVYYCNAANRWRGSYDYWGQGTQVTVSS,high polyreactivity
12,QVQLVESGGGLVQAGGSLRLSCAASGSIFNLNAMGWYRQAPGKERELVASISSDGSTYYADSVKGRFTISRDNAKNTVYLQMNSLKPEDTAVYYCNADSQWAFKQLSFDYWGQGTQVTVSS,low polyreactivity
13,QVQLVESGGGLVQAGGSLRLSCAASGSIFNPYDMGWYRQAPGKERELVATISGGGGSTYYADSVKGRFTISRDNAKNTVYLQMNSLKPEDTAVYYCNKTDFNTNDLKFDYWGQGTQVTVSS,low polyreactivity
14,QVQLVESGGGLVQAGGSLRLSCAASGSIFNRYAMGWYRQEPGKERELVAAISRSGGRTYYADSVKGRFTISRDNAKNTVYLQMNSLKPEDTAVYYCAAQSYLHYGYWGQGTQVTVSS,high polyreactivity
15,QVQLVESGGGLVQAGGSLRLSCAASGSIFNRYARGWYRQAPGKERELVAAISSTGSTYYADSVKGRFTISRDNAKNTVYLQMNSLKPEDTAVYYCNADATHDWLRVDTYEYWGQGTQVTVSS,low polyreactivity
16,QVQLVESGGGLVQAGGSLRLSCAASGSIFNRYTMGWYRQAPGKEREFVAAIRNSGSRTYYADSVKRRFTISRDNAKNTVYLQMNSLKPEDTAVYYCAADGPLISSESYYWGQGTQVTVSS,low polyreactivity
17,QVQLVESGGGLVQAGGSLRLSCAASGSIFNSNAMGWYRPAPGKEREFVATITQTGSSTYYADSVKGRFTISRDNAKNTVYLQMNSLKPEETAVYYCAVDWILYEYEDDFWYRYDYWGQGTQVTVSS,low polyreactivity
18,QVQLVESGGGLVQAGGSLRLSCAASGSIFNSNGMGWYRQAPGKERELVAAITGGGSTNYADSVKGRFTISRDYAKNTVYLQMNSLKPEDTAVYYCAKRSYRTHTYDYWGQGTQVTVSS,low polyreactivity
19,QVQLVESGGGLVQAGGSLRLSCAASGSIFNSYAMGWYRQAPGKERELVAAISSGGGRTYYADSVKGRFTISRDNAKNTVYLQMNSLKPEDTAVYYCNARAVYRFDYWGQGTQVTVSS,high polyreactivity
20,QVQLVESGGGLVQAGGSLRLSCAASGSIFNTYAMGWYRQAPGKERELVAAISRSGDSTYYADSVKGRFTISRDNAKNTVYLQMNSLKPEDTAVYYCATGRTDHGYYYWGQGTQVTVSS,high polyreactivity
21,QVQLVESGGGLVQAGGSLRLSCAASGSIFNWYALGWYRQAPGKDRELVAAISKSGGRPYYADSVKGRFTISRDNAKNTVYLQKNSLKPEDTAVFSCNAPRFVGLNVYGYDYWGQGTQVTVSS,high polyreactivity
22,QVQLVESGGGLVQAGGSLRLSCAASGSIFNYNMGWYRQAPGKERELVAAVSTNYADSVKGRFTISRDNAKNTVYLQMNSLKPEDTAVYYCGVTPEKSGDEYDYWGQGTQVTVSS,low polyreactivity

row,Sequence,polyreactivity (PSR sort gate)
1,QVQLVESGGGLVQAGGSLRLSCAASGSIFNYNMGWYRQAPGKERELVAAVSTNYADTVKGRFTISRDNAKNTVYLQMNSLKPEDTAVYYCGVTPEKSGDEYDYGGQGTQVTVSS,low polyreactivity
2,QVQLVESGGGLVQAGGSLRLSCAASGSIFNYSAMGWYRQAPGKERELVAAITTSGGNTYYADSVQGRFTISRDNAKNTVYLQMNSLKPEDSAVYYCARTVSRYGTGNMDYWGQGTKVTVSS,low polyreactivity
3,QVQLVESGGGLVQAGGSLRLSCAASGSIFNYYALGWYRQAPGKEREFVADISGSGSSTYYADSVKGRFTISRDNAQNTVYLQMNSLKPEDTAVYYCNAEYYWGVGYYPYSDYGYWGQGTQVTVSS,low polyreactivity
4,QVQLVESGGGLVQAGGSLRLSCAASGSIFNYYAMGWYRQAPGKERELVAAITTSGGNTYYADSVKGRFTISRDNAKNTVYLQMNSLKPEDTAVYYCNTVYAGAAWYQYGYWGQGTQVTVSS,low polyreactivity
5,QVQLVESGGGLVQAGGSLRLSCAASGSIFNYYGMGWYRQAPGKERELVAAISVRGGRTYYADSVKGRFTISRDNAKNTVYLQMNSLKPEDTAVYYCAADGGYSLGYYDDELDYWGQGTQVTVSS,low polyreactivity
6,QVQLVESGGGLVQAGGSLRLSCAASGSIFPAYAMGWYRQAPGKERELVAAITDRCGSTYYADSVKGRFTISRDNANNTVSLQMNSLKPEDTYWGQGTQVTVSS,low polyreactivity
7,QVQLVESGGGLVQAGGSLRLSCAASGSIFPAYAMGWYRQAPGKERELVAAITGSGGSTYYADSVKGRFTISRDNAKNTVYLQLNSLKPEDTAVYYCAATIRQFRRYDYWGQGTQVTVSS,low polyreactivity
8,QVQLVESGGGLVQAGGSLRLSCAASGSIFPAYTMGWYRPAPGKERELVAAITRRGGSTYYADSVKGRFTISRDNSKNTVYLQMNSLKPEDTAVYYCAAGGLYTPYDYWGQGTQVTVSS,low polyreactivity
9,QVQLVESGGGLVQAGGSLRLSCAASGSIFPDNTMGWYRQAPGKERELVAAIDGRGGTTYYADSVKGRFTISRDNAKNTVYLQMNSLKPEDTAVYYCARDIGHSARYDYWGQGTQVTVSS,low polyreactivity
10,QVQLVESGGGLVQAGGSLRLSCAASGSIFPEYAMGWYIQAPGKERELVASISSGGSSTYYADSVKGRFTISRDNAKNTVYLQMNSLKPEDTAVYYCARRRSYKRRFDYWGQGTQVTVSS,low polyreactivity
11,QVQLVESGGGLVQAGGSLRLSCAASGSIFPEYAMGWYRQAPGKERELVAAITTSGGSTYYADSVKGRFTISRDNAKNTVYLQMNSLKPEDTAVYYCAAGTQAHAYVVRPIEMDYWGQGTQVTVSS,low polyreactivity
12,QVQLVESGGGLVQAGGSLRLSCAASGSIFPFYAMGWSRQAPGKERELVAAITWISGRTYYADSVKGRFTISRDNAKTTVYLQRNRLKPEDTAVYYCAVDYYSWLRRDDYWGQGTQVTVSS,low polyreactivity
13,QVQLVESGGGLVQAGGSLRLSCAASGSIFPFYAMGWYRQAPGKERELVATISWSGGRTYYADSVKGRFTISRDNAKNTVYLQMNSLKPEDTAVYYCAAGSYHYPNAYYYWGHGTQVTVSS,high polyreactivity
14,QVQLVESGGGLVQAGGSLRLSCAASGSIFPGYAMGWSRQAPEKERELVAAISRRGGSTYYADSVKGRFTISRDNAKNTVYLQMNSLKPEDNAVYYCAKDGTGAGTYDYWGQGTKVTVSS,low polyreactivity
15,QVQLVESGGGLVQAGGSLRLSCAASGSIFPGYAMGWYRQAPGKERELVAAISSGGSTNYADSVKGRFTISRDNAKNTVYLQMNSLKPEDTAVYYCAARVWRYHVYAFYYWGQGTQVTVSS,high polyreactivity
16,QVQLVESGGGLVQAGGSLRLSCAASGSIFPGYAMGWYRQAPGKERELVATIRWSSGSRTNYADSVKGRFTISRDNAKNTVYLQMNSLKPEDTAVYYCAAGSRRYKYDYWGQGTQVTVSS,high polyreactivity
17,QVQLVESGGGLVQAGGSLRLSCAASGSIFPGYAMGWYRQAPGKERELVATITWSGGSTYYADSVKGRFTISRDKAKNTVYLQMNSLKPEDTAVYYCNADSNWYYQWNYYGLYDYWGQGTQVTVSS,low polyreactivity
18,QVQLVESGGGLVQAGGSLRLSCAASGSIFPHNAMGWYRQAPGKERVLVASITSRGGITYYADSVKGRFTISRDNAKNTVYLQMNSLKPEDTAVYYCAADLYIYPYDYWGQGTQVTVSS,low polyreactivity
19,QVQLVESGGGLVQAGGSLRLSCAASGSIFPHNAMGWYRTAPGKDRELVAAISWRDVISYYADSVKGRFTISRDNAKNTVYLQMNSLKPEDTAVYYCAAELRVYGVDYEYWGQGTQVTVSS,high polyreactivity
20,QVQLVESGGGLVQAGGSLRLSCAASGSIFPHNTMGWYRQAPGNERELVAAISRSGGSTYYADSVKGRFTISRDNAKNTVYLQMNSLKPEDTAVYYCARDSYDVGHQVVSDERLYDYWGQGTQVTVSS,low polyreactivity
21,QVQLVESGGGLVQAGGSLRLSCAASGSIFPHYAMGWYRQAPGKERELVAAISSGTSTNYADSVKGRFTISRDNAKNTVYLQMNSLKPEDTAVYYCAADIGVYGERREEEFDYWGQGTQVTVSS,low polyreactivity
